The values below are quoted from earlier work in US5770691A, “Discriminatory substrates for MMP hydrolysis” (Regents of the University of Minnesota, priority 1995, dated 1998).

This series has as its target MMP-3 (Homo sapiens, UniProt P08254). Conditions: MMP-3 cleavage, determined at 37° C.

Sequence of MMP-3 (P08254 100-477, species assumed): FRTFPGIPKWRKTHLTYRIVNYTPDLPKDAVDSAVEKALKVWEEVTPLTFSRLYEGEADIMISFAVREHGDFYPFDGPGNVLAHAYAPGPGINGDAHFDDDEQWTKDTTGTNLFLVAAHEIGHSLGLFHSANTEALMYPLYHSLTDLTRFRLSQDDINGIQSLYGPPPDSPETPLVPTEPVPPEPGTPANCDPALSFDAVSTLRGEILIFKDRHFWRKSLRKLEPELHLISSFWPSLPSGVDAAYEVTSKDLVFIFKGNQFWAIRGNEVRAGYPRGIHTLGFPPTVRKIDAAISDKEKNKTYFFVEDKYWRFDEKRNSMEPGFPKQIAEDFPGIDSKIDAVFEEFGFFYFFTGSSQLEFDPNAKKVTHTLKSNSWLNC

B1: Human α1 -antichymotrypain: protease inhibitor cleaved by MMP-3 at Ala360-Leu361 (protein, UniProt P01011 24-423, looked up)
Alpha-1-antichymotrypsin: HPNSPLDEENLTQENQDRGTHVDLGLASANVDFAFSLYKQLVLKAPDKNVIFSPLSISTALAFLSLGAHNTTLTEILKGLKFNLTETSEAEIHQSFQHLLRTLNQSSDELQLSMGNAMFVKEQLSLLDRFTEDAKRLYGSEAFATDFQDSAAAKKLINDYVKNGTRGKITDLIKDLDSQTMMVLVNYIFFKAKWEMPFDPQDTHQSRFYLSKKKWVMVPMMSLHHLTIPYFRDEELSCTVVELKYTGNASALFILPDQDKMEEVEAMLLPETLKRWRDSLEFREIGELYLPKFSISRDYNLNDILLQLGIEEAFTSKADLSGITGARNLAVSQVVHKAVLDVFEEGTEASAATAVKITLLSALVETRTIVRFNRPFLMIIVPTDTQNIFFMSKVTNPKQA
For the molecule B1, the “kcat /Kb” value is on record as 35,000 S^-1 M^-1.
